Experimental findings from the RNAGym collection of RNA variant scans (doi:10.7554/elife.80360) are described below.

The chains are these.
B1: Twister Ribozyme (parent)
chain: AACACUGCCAAUGCCGGUCCCAAGCCCGGAUAAAAGUGGAGGGGGCGG

Variants of B1 are the subject of the data set. In words: self-cleavage, relative activity (ratio to wild type); higher = more cleavage; co-transcriptional.
For the variant A33U G45U, the self-cleavage came to 0.843.

Consider C5G C19U, for which the self-cleavage was 0.504. As for G17U C25A, the figure is 0.0904; as for C27A G38C, 0.573. For G13A G44U, the self-cleavage was 0.845. Regarding C15G A35G, the self-cleavage was determined as 0.0859.

For the variant C26A C46U, the self-cleavage was determined as 0.624. For C3A G41C, the self-cleavage is 0.07. Regarding A4G A23G, the self-cleavage stood at 0.384. As for C25A C26U, the figure is 0.0948; as for G28U G47U, 0.567.

As for A11U C25U, the self-cleavage came to 1.03. Take A1U A11G: the self-cleavage amounted to 0.0739. For the variant U37C G44A, the self-cleavage was found to be 0.69. As to A34G G48C, the self-cleavage was determined as 0.791. For A30C G47A, the self-cleavage is 0.577. U18C U31G: the self-cleavage is 0.477. On to A23U C46U, for which the self-cleavage stood at 0.731. C15G G47C: the self-cleavage is 0.0669. As for G17C G42C, the self-cleavage was found to be 0.11. As for C5G G7A, the figure is 0.111; as for A1C U37A, 0.148; as for A2U A4G, 0.413. In the case of A10C A22U, the self-cleavage is 0.78. The figure for G38A G41U is 0.315; for A11G U31C it is 0.736. In the case of A10U G43U, the self-cleavage turned out to be 0.501. The figure for C15U C26U is 0.117; for C9G G16U it is 0.346. As for C25A, the figure is 0.144. As for A10U A30G, the self-cleavage stood at 0.915. For G13A G43A, the self-cleavage worked out at 0.14. On to G17A G36U, for which the self-cleavage is 0.108.

For the variant G7C C46A, the self-cleavage was 0.0371. In the case of A11G G39C, the self-cleavage came out at 0.119. On to C5U C19U, for which the self-cleavage was 0.819. The figure for G42C C46G is 0.465; for U31G G43C it is 0.18.

Turning to A34G C46G, the self-cleavage amounted to 0.815.

Regarding A4G C19U, the self-cleavage was 0.887. As for A23U G38U, the figure is 0.236; as for U6G G38C, 0.168. Take C26G G47A: the self-cleavage stood at 0.177. On to G28C G43U, for which the self-cleavage worked out at 0.17. As for A34G G41C, the figure is 0.12; as for G28U A34U, 0.585. Take A23U G28U: the self-cleavage was found to be 0.279.

U6A G29C: the self-cleavage was found to be 0.335. As for C20A C26A, the self-cleavage turned out to be 0.0889.

In the case of G29C G47C, the self-cleavage is 0.222. In the case of G17A G28A, the self-cleavage worked out at 0.296. Take C3G G47C: the self-cleavage is 0.149. As for A10U C26G, the self-cleavage is 0.264. Consider G29U U37A, for which the self-cleavage was 0.512. On to C14A A35G, for which the self-cleavage is 0.718. As to G43A G47A, the self-cleavage worked out at 0.237.

As for A11C A30U, the self-cleavage turned out to be 0.959. As for G29U G43C, the self-cleavage was determined as 0.19. C8G C26G: the self-cleavage came out at 0.12. With U31C A35C, the self-cleavage turned out to be 1.03. As for A1C C26U, the figure is 0.133; as for U6G G43C, 0.13; as for A4U U12G, 0.168. For the variant C8G A30G, the self-cleavage worked out at 0.643.

In the case of C3G C46A, the self-cleavage was determined as 0.624.

As to A4C C46A, the self-cleavage came to 0.063.

Consider G41C G44A, for which the self-cleavage turned out to be 0.211.

For the variant C8A C14A, the self-cleavage turned out to be 0.529. On to A4G G24U, for which the self-cleavage was found to be 0.12.

Take A32C U37A: the self-cleavage is 0.732. Take A33G G44C: the self-cleavage worked out at 0.752. As to G16A C46G, the self-cleavage amounted to 0.813. On to C3A G44C, for which the self-cleavage amounted to 0.207. On to A34C C46A, for which the self-cleavage amounted to 0.142.

As for G16C G48U, the self-cleavage amounted to 0.414. The figure for G13A C19U is 0.284; for G7A G45C it is 0.139. The figure for A10U U12C is 0.931; for G17U G39C it is 0.0939. As for G13C G45A, the self-cleavage was 0.209. The figure for C5U G16U is 0.459; for U6G G16C it is 0.156; for A32C A35C it is 0.911.

For the variant A1G G28U, the self-cleavage worked out at 0.428.

In the case of C25A A40U, the self-cleavage was found to be 0.0741.

Take G17U C19U: the self-cleavage amounted to 0.143. As for C14G A23G, the figure is 0.103; as for C9U A35U, 0.767. In the case of G17A C46U, the self-cleavage was 0.774. Consider A2C A30C, for which the self-cleavage turned out to be 0.0338. Turning to U12A C15A, the self-cleavage was determined as 0.901. Take C26U G41C: the self-cleavage turned out to be 0.154. As for A34U G36C, the figure is 0.132. On to C9G G48U, for which the self-cleavage amounted to 0.377. G43C G45A: the self-cleavage came out at 0.294. As for U18C G28U, the figure is 0.156; as for A10G U31A, 0.696; as for A1U A22C, 0.0885. As for U12A C46U, the self-cleavage was 0.977. The figure for G41C G48C is 0.332; for A22C G24U it is 0.0876. Take C20A G42A: the self-cleavage was 0.107. Take C8U A22G: the self-cleavage came out at 0.1.

As for A4C G17U, the self-cleavage came to 0.0801. For the variant G38C G45C, the self-cleavage was 0.473.

For C3G G45U, the self-cleavage was determined as 0.31. Take A30C G43U: the self-cleavage amounted to 0.121. The figure for C9U U18C is 0.0748. For the variant G36A A40G, the self-cleavage amounted to 0.144. As for A22U A32U, the figure is 0.71; as for G7A A30U, 0.425; as for A22U A40C, 0.184. As for G7C G36A, the figure is 0.0583. Regarding C5A G43A, the self-cleavage amounted to 0.1. Turning to U6A U12C, the self-cleavage stood at 1.11.

On to A2G G45C, for which the self-cleavage amounted to 0.0901. The figure for G16A G42U is 0.197; for C14G A33G it is 0.0896; for C20U G38C it is 0.841. For G7U G41U, the self-cleavage was found to be 0.0899.

Consider U6G A11C, for which the self-cleavage was 0.173.

For the variant A2G C21U, the self-cleavage was 0.0523. For the variant A2U U6G, the self-cleavage was determined as 0.0884.

Consider A33C G44U, for which the self-cleavage was 0.97. As for U6G G39A, the self-cleavage stood at 0.12. On to G7C C8A, for which the self-cleavage was 0.0479.

On to C3G C21G, for which the self-cleavage came out at 0.0504. On to G17U G45C, for which the self-cleavage stood at 0.183. With G17U A22G, the self-cleavage was 0.103. Regarding A1G C21G, the self-cleavage was found to be 0.0325. For U6A G36A, the self-cleavage was determined as 0.168. On to C20A U31C, for which the self-cleavage turned out to be 0.117. As to C20A G45A, the self-cleavage is 0.144. As to A22U U37G, the self-cleavage came out at 0.554. As for A1G U31G, the figure is 0.533; as for A2U G16A, 0.256; as for C19G U37C, 0.138. For C3A C15A, the self-cleavage stood at 0.101.

For A22C G45C, the self-cleavage was 0.491. For C25G G39A, the self-cleavage came out at 0.101. Consider C26A U31C, for which the self-cleavage worked out at 0.7. As for U18C G44A, the self-cleavage was 0.714. The figure for G16C G24U is 0.0773; for A10C A33U it is 1.08; for A34C G36C it is 0.104. The figure for A34C G36U is 0.084; for A2G C25A it is 0.127.

Regarding C19A G28U, the self-cleavage worked out at 0.179. As for A10U C19A, the self-cleavage is 0.331. Consider U6G G28C, for which the self-cleavage turned out to be 0.16. For the variant C25A A30U, the self-cleavage stood at 0.0882. In the case of U12A G24C, the self-cleavage amounted to 0.097. The figure for G7C G43U is 0.0777.

In the case of U37A G38C, the self-cleavage was determined as 0.551. The figure for C21G G39C is 0.128; for C8A A22G it is 0.107. For the variant G7U G17C, the self-cleavage was 0.0441. The figure for U18C C20G is 0.102; for G38A A40G it is 0.131. Regarding G7U C9G, the self-cleavage is 0.0496. As for A11G C26G, the figure is 0.234; as for A4G A40U, 0.163. Consider A10C G47A, for which the self-cleavage is 0.834. G24C U31C: the self-cleavage came to 0.108.

Turning to C8A C21A, the self-cleavage came to 0.0745. As to A22C A32G, the self-cleavage is 0.879.

Take C21A G29U: the self-cleavage is 0.134. As to U12G A22U, the self-cleavage was 0.706. Consider C14G U37A, for which the self-cleavage stood at 0.0885. Consider C9U G36C, for which the self-cleavage was 0.12. As to A23U G45U, the self-cleavage stood at 0.249. In the case of A1C C9U, the self-cleavage worked out at 0.174.

Regarding C27A A35C, the self-cleavage was 0.58. With A4G C15A, the self-cleavage turned out to be 0.631. On to A11C A34C, for which the self-cleavage was determined as 0.049. For C3A A23C, the self-cleavage worked out at 0.0997. For the variant C5A G38U, the self-cleavage was determined as 0.0941. Turning to A33C G41A, the self-cleavage is 0.309. For the variant C25U G48A, the self-cleavage was found to be 0.559. Regarding C9A C46G, the self-cleavage was 0.59. Take G13U U31G: the self-cleavage came to 0.667. As to U6A U37A, the self-cleavage worked out at 0.142. With G7C G45A, the self-cleavage was 0.0964. For C20U G41U, the self-cleavage came out at 0.141.

G24U G38A: the self-cleavage was 0.0987. Take C27U G36C: the self-cleavage is 0.21. C21A A34C: the self-cleavage came out at 0.0648. C20A C46A: the self-cleavage worked out at 0.0788. As for G36U C46U, the figure is 0.408; as for G36U C46A, 0.31.

C21U G36A: the self-cleavage turned out to be 0.0555. The figure for G42C G45U is 0.164. As for G29U G41C, the figure is 0.25. In the case of A4C A35U, the self-cleavage came to 0.272. On to U31C A32U, for which the self-cleavage came out at 1.02.
